Tested on: peptide library, one residue held at a place counted from the S/T acceptor
Test: relative phosphorylation of the sub-library (ratio to the mean residue at this position); higher = residue favoured
Conditions: human
Outline: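 Relative sub-library phosphorylation is the ratio of each sub-library's signal to the mean residue at that position. The signal came from phosphorimaging of spots on streptavidin membranes, quantified by densitometry, after purified recombinant kinases reacted with biotinylated degenerate peptide sub-libraries in 384-well plates. Reactions held 50 μM peptide and 50 μM ATP spiked with γ-32P-ATP for 90 min under kinase-specific conditions.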

Sequence of FAM20C, construct: aa23-end (Q8IXL6 23-584, looked up): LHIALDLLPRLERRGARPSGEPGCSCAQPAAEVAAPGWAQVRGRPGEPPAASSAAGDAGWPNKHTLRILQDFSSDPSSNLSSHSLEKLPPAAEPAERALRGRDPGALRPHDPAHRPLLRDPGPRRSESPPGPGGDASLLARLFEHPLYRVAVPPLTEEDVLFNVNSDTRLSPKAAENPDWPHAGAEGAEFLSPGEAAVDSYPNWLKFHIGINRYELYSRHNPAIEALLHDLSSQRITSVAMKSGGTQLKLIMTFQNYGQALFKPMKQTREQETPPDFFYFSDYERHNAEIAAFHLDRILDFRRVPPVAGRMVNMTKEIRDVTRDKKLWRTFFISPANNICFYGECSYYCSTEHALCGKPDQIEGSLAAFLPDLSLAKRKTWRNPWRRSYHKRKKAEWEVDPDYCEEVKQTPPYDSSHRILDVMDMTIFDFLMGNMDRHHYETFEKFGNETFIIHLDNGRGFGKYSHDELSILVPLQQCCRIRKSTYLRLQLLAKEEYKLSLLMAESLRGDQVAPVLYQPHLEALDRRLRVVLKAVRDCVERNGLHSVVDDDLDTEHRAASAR
Sequence of MAP3K8, construct: aa30-397 (P41279 30-397, looked up): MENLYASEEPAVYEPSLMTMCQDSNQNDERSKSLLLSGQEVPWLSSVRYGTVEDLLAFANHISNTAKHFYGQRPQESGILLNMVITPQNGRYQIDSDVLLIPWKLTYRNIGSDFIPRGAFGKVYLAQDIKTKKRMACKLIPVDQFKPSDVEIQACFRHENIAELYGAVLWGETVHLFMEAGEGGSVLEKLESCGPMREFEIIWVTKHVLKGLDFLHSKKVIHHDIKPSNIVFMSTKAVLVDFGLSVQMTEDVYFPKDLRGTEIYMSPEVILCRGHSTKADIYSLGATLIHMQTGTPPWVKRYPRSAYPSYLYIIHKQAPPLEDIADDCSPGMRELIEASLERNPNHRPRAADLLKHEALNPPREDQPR

MAP3K8, construct: aa30-397 (from UniProt P41279)
relative phosphorylation
Conditions	at +1	at +2	at +3	at +4	at -1	at -2	at -3	at -4	at -5
A fixed	0.997	0.962	0.971	1.12	0.924	0.801	0.815	1.17	1.27
D fixed	0.537	0.83	0.819	1.27	1.65	2	1.57	1.62	1.47
E fixed	0.66	1.12	0.961	1.44	1.2	1.5	1.62	1.51	1.27
F fixed	1.1	0.338	0.599	0.523	0.449	0.976	0.535	0.489	0.575
G fixed	1.23	0.736	1.2	1.09	1.31	1.23	1.36	1.51	1.41
H fixed	0.869	1.17	0.465	0.83	1.16	1.18	1.16	1.16	1.33
I fixed	0.847	0.952	0.832	0.655	0.336	0.554	0.382	0.479	0.435
K fixed	1.31	1.61	1.57	1.4	1.37	0.653	1.08	1.11	1.47
L fixed	0.9	0.938	1.22	0.771	0.746	0.816	0.59	0.55	0.576
M fixed	1.29	0.697	1.09	0.877	0.572	0.789	0.595	0.676	0.499
N fixed	0.996	1.67	1.03	0.997	1.5	1.35	1.32	1.35	1.25
P fixed	0.299	0.499	0.522	1.72	1.11	0.927	1.52	1.32	1.31
Q fixed	1.36	1.9	1.21	1.09	1.28	0.913	1.16	1.01	0.943
R fixed	1.31	1.5	1.73	1.02	1.41	0.717	1.15	1.05	1.08
V fixed	1.07	1.25	0.992	0.809	0.601	0.519	0.446	0.536	0.694
W fixed	0.806	0.382	0.78	0.689	0.591	0.805	0.835	0.707	0.834
Y fixed	1.41	0.438	1.01	0.688	0.782	1.28	0.856	0.761	0.575
pThr fixed	1.64	1.48	0.934	1.43	1.44	1.43	1.5	1.4	1.1
pTyr fixed	0.716	1.83	1.08	1.17	1.51	0.871	1.49	0.882	1.1

FAM20C, construct: aa23-end (from UniProt Q8IXL6)
relative phosphorylation
Conditions	at +1	at +2	at +3	at +4	at -1	at -2	at -3	at -4	at -5
A fixed	1.77	0.243	0.795	0.935	1.27	1.28	0.91	1.14	1.14
D fixed	1.03	0.708	2.21	1.67	2.77	1.99	1.61	1.68	1.46
E fixed	2.15	13	2.58	1.91	1.4	1.19	1.66	1.52	1.31
F fixed	0.537	0.173	0.624	0.825	0.423	0.95	0.693	0.737	1.04
G fixed	1.61	0.214	0.518	1.45	1.31	1.28	1.45	1.26	1.05
H fixed	1.39	0.25	0.863	0.874	1.29	1.08	0.95	1.02	1.43
I fixed	0.52	0.155	1.13	1.02	0.468	0.663	0.619	0.789	0.751
K fixed	0.822	0.185	0.516	0.607	0.589	0.647	0.719	0.745	0.896
L fixed	0.54	0.159	1.07	0.788	0.485	0.581	0.968	0.826	0.832
M fixed	1.11	0.205	0.884	0.92	0.555	0.673	0.851	0.887	0.761
N fixed	1.08	0.277	0.845	0.806	2.19	1.8	1.2	1.08	1.14
P fixed	0.253	0.18	0.252	0.777	0.303	1.11	1.01	1.06	0.843
Q fixed	1.26	0.454	1.17	0.863	0.934	0.809	1.07	0.997	0.907
R fixed	0.958	0.2	0.603	0.571	0.685	0.612	0.918	0.75	0.809
V fixed	0.618	0.179	1.36	1.02	0.808	0.701	0.682	0.876	0.959
W fixed	0.696	0.208	0.831	1.05	0.839	0.795	0.861	0.895	1.01
Y fixed	0.65	0.199	0.76	0.913	0.681	0.851	0.835	0.736	0.66
pThr fixed	0.641	0.744	1.28	3.06	0.797	1.09	1.49	1.38	1.05
pTyr fixed	0.699	1.02	2.15	2.74	1.08	1.96	1.64	1.1	1.19

Reference: the supplement of paper PMC9876800
